Positions of bridges follow the written chain, without caps; N, C: chain ends. Residues, ends and D or L forms follow the SMILES beside them. *: point of attachment. NODAGA = O=C(O)CN1CCN(CC(=O)O)CCN(C(CCC(=O)*)C(=O)O)CC1; NOTA = O=C(O)CN1CCN(CC(=O)O)CCN(CC(=O)*)CC1; AEEA = NCCOCCOCC(=O)O
Legend:
[1] = in vivo; conditions: rat; for SUV / SUV at 2 h: both sexes, Sprague-Dawley, total radioactivity; for SUV / SUV at 2 h / Uptake in most of the organs (SUV): iv; for SUV at 2 h: Uptake within 120 min in blood, heart, lung, pancreas, adrenal gland, small intestine, large intestine, testis, muscle and brain (SUV)
Method: Animal studies were performed using healthy female and male Sprague–Dawley rats: one male and one female animal per time point and tracer (Table 1). The animal experiments were approved by the local Ethics Committee for Animal Research and performed in accordance with local institutional and Swedish national rules and regulations. The animals were kept at a constant temperature (20 °C) and humidity (50%) in a 12-h light-dark cycle and given free access to food and water.
(§1) [^68Ga]Ga-NO2A-Col or [^68Ga]Ga-NODAGA-Col was injected into the tail vein of rats as a bolus with 500 µL phosphate-buffered saline (pH 7.4) as the vehicle (Table 1). The injected amount of the peptides was 0.8 ± 0.2 nanomoles. The animals were euthanized by a CO2–O2 mixture at 5, 10, 20, 40, 60 and 120 min post-injection. The radioactivity of the excised organs was measured in a well-type NaI(Tl) scintillation counter, applying correction for dead-time and radioactivity decay. The weight of the tissues was determined simultaneously. The remaining carcass was also measured in order to monitor the radioactivity elimination and recovery. Samples from blood, heart, lung, liver, spleen, adrenal glands, kidneys, intestines, with or without contents, muscle, testis, bone, brain, pancreas, urine bladder and bone marrow were collected. The radioactivity readings were decay-corrected to the time of the injection, and the results were expressed as standardized uptake values (SUV; Equation (1)), where the radioactivity of an organ and injected radioactivity was expressed in MBq, and the weight of a rat and organ was expressed in g. (1) SUV=Radioactivityorgan×weightrat/Radioactivityinjected×weightorgan

[2] = parameters: species or system human; conditions: in vivo
Method: Human organ and total body absorbed and effective dose estimates were calculated according to the Medical Internal Radionuclide Dose (MIRD) procedure using the measured residence times and the dose rate S-values. The SUV values in rat were first multiplied with the appropriate radioactivity decay factor dependent on the time point of the data post-injection, then multiplied by standard organ masses and divided by the standard total-body weight for the standard adult man phantom obtained from the OLINDA/EXM 1.1 software (Organ Level Internal Dose Assessment Code, Vanderbilt University, Nashville, TN, USA, 2007). The values obtained correspond to the fraction of injected radioactivity (%IA) per organ in man as a function of time (Equation (2), where SUVA is the SUVs of rat organs; gorgan and kgTBweight are respectively the standard organ weight and standard total body weight of a human). (2) (%IAOrgan)human=SUVA×(gorgan/kgTBweight)human
The cumulative radioactivity for the organs was determined by integrating the area under the time-radioactivity curves for each organ using trapezoidal approximation of the collected kinetic data, followed by extrapolation of remaining points from the last time point to infinity by a single exponential fit. The residence time for each organ is equal to the number of disintegrations (MBq × h/MBq). Bone marrow residence time was assessed according to the bone marrow blood model. The residence time for the remaining carcass was calculated in the same way as for the other organs, and this value was used as input in the OLINDA software as “remainder”. The “remainder” of the body residence time was calculated from SUV due to radioactivity measured in the rest of the body after the removal of the source organs and tail. The difference between the theoretical residence time and the calculated residence time of the source organs plus the remainder of the body was assumed to have been in the tail or excreted. The kidney absorbed dose was calculated based on a multi-region kidney model phantom. The total target organ absorbed dose (D) is contributed by all source organs and is expressed by Equation (3), where Ã is the time-integrated radioactivity in the source tissue (rS) and S is the radionuclide-specific dose rate values: (3) D(rT,t)=∑rSÃ(rS,t)×S(rT←rS,t)
The similarity of the biodistribution pattern in human and rat and the homogeneous distribution of radioactivity throughout the organ were two basic assumptions considered when extrapolating rat biodistribution data to the human species for the calculation of the absorbed and total effective doses. The organ distribution study was conducted for 120 min. The residence time was determined using the trapezoidal rule, wherein the area from the injection time to the termination time was calculated. […] The values were higher for male animals. This is because the residence time is integrated over the entire tissue using the standardized human dosimetry model of organ volumes, where in the human male model, the muscle volume is around 1.65-times higher than that in the female model (28 vs. 17 kg), and the male model blood volume (5.5 L) is almost 1.5 larger than in the female model (3.8 L). The other tissues are also larger in the male model, but to a lesser extent. During the calculation of the absorbed dose in each tissue (mSv/MBq) by OLINDA, the values are again divided with each tissue’s volume, providing final dose values.
Absorbed doses and total effective doses were calculated using residence time values as the input into OLINDA/EXM 1.1, the MIRD scheme of an adult (70 kg) and recommended tissue weighting factors from the International Commission on Radiological Protection (ICRP, 2007). The absorbed doses (mGy/MBq) and total effective doses (mSv/MBq) obtained from OLINDA/EXM 1.1 calculations are presented in Table 2. […]

[3] = rat, in vivo, iv
Method: as §1, with “SUV=Radioactivityorgan×weightrat/Radioactivityinjected×weightorgan […]” for “SUV=Radioactivityorgan×weightrat/Radioactivityinjected×weightorgan”

[4] = Uptake in most of the vital organs, including heart and lung (SUV)
[5] = Uptake in small and large intestines (SUV)

Structure (SMILES) | SUV ([1]; Kidney uptake (SUV)) [SUV] | SUV [1, 4] [SUV] | SUV [1, 5] [SUV] | SUV ([1]; Uptake in the brain (SUV)) [SUV] | SUV at 2 h [1] [SUV] | Uptake in most of the organs (SUV) [1] | Effective dose per administration [2] | Estimated absorbed dose, Breasts [2] [mGy/MBq] | Estimated absorbed dose, Uterus [2] [mGy/MBq] | Highest organ absorbed dose (kidneys) [2] [mGy/MBq] | Kidney absorbed dose as share of maximum allowed dose of 50 mGy to a single organ [2] | PET examinations per year before reaching the red marrow limiting dose [2] | Radioactivity before reaching the red marrow limiting dose [2] | Radioactivity that could be administered per year if limited by kidney dose [2] | Total dose per examination (PET plus CT) [2] | Share of radioactivity accounted for by the single exponential blood clearance phase [3] | also measured
CSCC[C@@H]1NC(=O)[C@H](C(C)C)NC(=O)[C@H](CCCNC(=N)N)NC(=O)CNC(=O)[C@@H]2CCCN2C(=O)[C@@H](NC(=O)COCCOCCNC(=O)CCC(C(=O)O)N2CCN(CC(=O)O)CCN(CC(=O)O)CC2)CSSC[C@@H](C(=O)O)NC(=O)[C@@H]2CCCN2C(=O)CNC(=O)[C@H](CCC(=O)O)NC(=O)[C@H](CC(=O)O)NC(=O)[C@H](CC(=O)O)NC(=O)CNC(=O)[C@H](CC(C)C)NC(=O)[C@H](Cc2c[nH]cn2)NC(=O)[C@H](CC(C)C)NC(=O)CNC(=O)[C@H](Cc2c[nH]cn2)NC1=O (some centres unmarked) [[^68Ga]Ga-NODAGA-Col, metal not drawn] ({NODAGA-AEEA}-CPGRVMHGLHLGDDEGPC-OH; disulfide 1-18) | > 10 | < 0.5 | < 0.1 | < 0.01 | < 0.1 | below one | 0.78–1.64 mSv | 0.016 | 0.019 | 0.1 | ~21% | over 1000 | over 200 GBq | over 1460 MBq | 1.78–2.64 | over 98% | Radioactivity that stayed in liver and spleen [1]: Over 85%; Estimated absorbed dose, Brain [2]: 0.002 mGy/MBq; Estimated absorbed dose, Spleen [2]: 0.011 mGy/MBq; Increase of liver residence time/absorbed dose versus [^68Ga]Ga-NO2A-Col [2]: 100%
CSCC[C@@H]1NC(=O)[C@H](C(C)C)NC(=O)[C@H](CCCNC(=N)N)NC(=O)CNC(=O)[C@@H]2CCCN2C(=O)[C@@H](NC(=O)COCCOCCNC(=O)CN2CCN(CC(=O)O)CCN(CC(=O)O)CC2)CSSC[C@@H](C(=O)O)NC(=O)[C@@H]2CCCN2C(=O)CNC(=O)[C@H](CCC(=O)O)NC(=O)[C@H](CC(=O)O)NC(=O)[C@H](CC(=O)O)NC(=O)CNC(=O)[C@H](CC(C)C)NC(=O)[C@H](Cc2c[nH]cn2)NC(=O)[C@H](CC(C)C)NC(=O)CNC(=O)[C@H](Cc2c[nH]cn2)NC1=O [[^68Ga]Ga-NO2A-Col, metal not drawn] ({NOTA-AEEA}-CPGRVMHGLHLGDDEGPC-OH; disulfide 1-18) | > 10 | < 0.5 | < 0.1 | < 0.01 | < 0.1 | below one | 0.78–1.64 mSv | 0.016 | 0.019 | 0.1 | about 20% | over 1000 | over 200 GBq | over 1460 MBq | 1.78–2.64 | over 98% | Absorbed dose in liver and spleen relative to [^68Ga]Ga-NODAGA-Col [2]: two-fold lower; Estimated absorbed dose, Adrenals [2]: 0.009 mGy/MBq
